Results: patent US20220073608A1

Columns and labels:
[1] = molecular target: hSEMA4D ECD-His (His-tagged human SEMA4D protein extracellular domain, Met22-Arg734) (human) (UniProt Q92854); test: ELISA, coated hSEMA4D ECD-His; Ab 2.67 nM
[2] = molecular target: hSEMA4D ECD-His (His-tagged human SEMA4D protein extracellular domain, Met22-Arg734) (human) (UniProt Q92854); test: ELISA, coated hSEMA4D ECD-His; Ab 0.0213 nM
[3] = molecular target: hSEMA4D ECD-His (His-tagged human SEMA4D protein extracellular domain, Met22-Arg734) (human) (UniProt Q92854); test: ELISA, coated hSEMA4D ECD-His; Ab 0.533 nM
[4] = molecular target: hSEMA4D ECD-His (His-tagged human SEMA4D protein extracellular domain, Met22-Arg734) (human) (UniProt Q92854); test: ELISA, coated hSEMA4D ECD-His; Ab 0.0427 nM
[5] = molecular target: hSEMA4D ECD-His (His-tagged human SEMA4D protein extracellular domain, Met22-Arg734) (human) (UniProt Q92854); test: ELISA, coated hSEMA4D ECD-His; Ab 0.107 nM
[6] = molecular target: hSEMA4D ECD-His (His-tagged human SEMA4D protein extracellular domain, Met22-Arg734) (human) (UniProt Q92854); test: ELISA, coated hSEMA4D ECD-His; Ab 13.3 nM
[7] = molecular target: monkey SEMA4D, full length, on CHO-K1 cells (CHO-K1 cSEMA4D) (monkey); test: FACS, CHO-K1 cSEMA4D cells; Ab 66.7 nM
[8] = molecular target: hSEMA4D ECD-His (His-tagged human SEMA4D protein extracellular domain, Met22-Arg734) (human) (UniProt Q92854); test: ELISA, coated hSEMA4D ECD-His; Ab 0.0533 nM
[9] = molecular target: hSEMA4D ECD-His (His-tagged human SEMA4D protein extracellular domain, Met22-Arg734) (human) (UniProt Q92854); test: ELISA, coated hSEMA4D ECD-His; Ab 0.000085 nM
[10] = molecular target: hSEMA4D ECD-His (His-tagged human SEMA4D protein extracellular domain, Met22-Arg734) (human) (UniProt Q92854); test: ELISA, coated hSEMA4D ECD-His; Ab 0.00213 nM
[11] = molecular target: T1, human SEMA4D, full length, on CHO-K1 cells (CHO-K1 hSEMA4D) (human) (UniProt Q92854); test: FACS, CHO-K1 hSEMA4D cells; Ab 66.7 nM
T1 sequence (looked up): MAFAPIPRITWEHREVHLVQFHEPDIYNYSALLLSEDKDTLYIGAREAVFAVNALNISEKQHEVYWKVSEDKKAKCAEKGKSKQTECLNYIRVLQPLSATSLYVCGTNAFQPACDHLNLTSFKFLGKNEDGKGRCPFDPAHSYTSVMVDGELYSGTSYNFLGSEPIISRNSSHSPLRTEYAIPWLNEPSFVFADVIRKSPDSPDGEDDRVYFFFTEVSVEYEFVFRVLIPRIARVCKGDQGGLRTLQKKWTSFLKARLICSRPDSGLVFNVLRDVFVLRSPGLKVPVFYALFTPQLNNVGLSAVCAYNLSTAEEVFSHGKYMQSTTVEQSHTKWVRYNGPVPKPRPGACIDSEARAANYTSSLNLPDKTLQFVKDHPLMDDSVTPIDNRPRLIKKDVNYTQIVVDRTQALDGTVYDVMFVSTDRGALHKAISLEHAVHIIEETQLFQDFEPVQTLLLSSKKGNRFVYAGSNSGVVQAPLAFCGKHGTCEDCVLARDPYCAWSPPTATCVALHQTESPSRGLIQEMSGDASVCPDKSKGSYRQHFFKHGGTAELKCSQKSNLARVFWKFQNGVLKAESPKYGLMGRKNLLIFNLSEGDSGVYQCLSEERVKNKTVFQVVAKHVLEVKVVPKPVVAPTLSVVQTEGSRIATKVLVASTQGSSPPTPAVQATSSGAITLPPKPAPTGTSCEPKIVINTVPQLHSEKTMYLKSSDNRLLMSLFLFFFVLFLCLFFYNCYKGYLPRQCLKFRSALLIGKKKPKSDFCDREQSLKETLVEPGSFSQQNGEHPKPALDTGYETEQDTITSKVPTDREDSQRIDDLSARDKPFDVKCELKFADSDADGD

[12] = molecular target: hSEMA4D ECD-His (His-tagged human SEMA4D protein extracellular domain, Met22-Arg734) (human) (UniProt Q92854); test: ELISA, coated hSEMA4D ECD-His; Ab 6.67 nM
[13] = molecular target: hSEMA4D ECD-His (His-tagged human SEMA4D protein extracellular domain, Met22-Arg734) (human) (UniProt Q92854); test: ELISA, coated hSEMA4D ECD-His; Ab 0.0107 nM
[14] = molecular target: hSEMA4D ECD-His (His-tagged human SEMA4D protein extracellular domain, Met22-Arg734) (human) (UniProt Q92854); test: ELISA, coated hSEMA4D ECD-His; Ab 1.33 nM
[15] = molecular target: hSEMA4D ECD-His (His-tagged human SEMA4D protein extracellular domain, Met22-Arg734) (human) (UniProt Q92854); test: ELISA, coated hSEMA4D ECD-His; Ab 0.267 nM
[16] = molecular target: hSEMA4D ECD-His (His-tagged human SEMA4D protein extracellular domain, Met22-Arg734) (human) (UniProt Q92854); test: ELISA, coated hSEMA4D ECD-His; Ab 0.00427 nM

Substance	OD450 nm [1]	OD450 nm [2]	OD450 nm [3]	OD450 nm [4]	OD450 nm [5]	OD450 nm [6]	MFI [7]	OD450 nm [8]	OD450 nm [9]	OD450 nm [10]	MFI [11]	OD450 nm [12]	OD450 nm [13]	OD450 nm [14]	OD450 nm [15]	OD450 nm [16]
Human IgG control (antibody)	0.074	0.0714	0.0748	0.0754	0.0717	0.0766	–	–	–	–	–	–	–	–	–	–
Mouse IgG control (antibody)	–	–	–	–	–	–	339	0.0805	0.0686	0.0718	214	0.533	0.0814	0.264	0.0791	0.0789
